Data taken from paper PMC9904277 (2023).

Target: MCL-1 (Homo sapiens, UniProt Q07820)
Assay: competition fluorescence anisotropy

MCL-1, sequence (Q07820 whole entry): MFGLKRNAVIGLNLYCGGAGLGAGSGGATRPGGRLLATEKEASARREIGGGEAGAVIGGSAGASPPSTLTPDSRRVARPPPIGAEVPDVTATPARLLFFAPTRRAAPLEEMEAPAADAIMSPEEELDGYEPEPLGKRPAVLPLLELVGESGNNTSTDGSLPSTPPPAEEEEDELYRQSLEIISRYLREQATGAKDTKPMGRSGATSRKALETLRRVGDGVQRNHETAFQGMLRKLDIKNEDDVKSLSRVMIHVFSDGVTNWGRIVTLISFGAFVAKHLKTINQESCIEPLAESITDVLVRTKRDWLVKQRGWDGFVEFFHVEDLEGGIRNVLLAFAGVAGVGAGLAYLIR

| IC50 | Binder |
| --- | --- |
| > 50000 nM | NLWAAQRYGRELRRMSDEFVDSFKK [BAD-wt BH3] |
| 2700 nM | SAAQLTAARLKALGDELHQRTMW [HRK-wt 28-50] |
